Test results: the Immune Epitope Database (IEDB)
Each block holds one sequence with its values, some of them ahead of it.

Columns and labels:
HLA-B*07:02 = assay: IEDB peptide-MHC binding, purified MHC/competitive/radioactivity; filed as Kd, often an IC50 or EC50 that approximates it; ≥ and ≤ were set here for values at or beyond the usual limits of such assays
HLA-B*35:01 = assay: as above
HLA-B*51:01 = assay: as above
HLA-B*53:01 = assay: as above
HLA-B*54:01 = assay: as above
HLA-A*02:01 = assay: as above
HLA-A*02:02 = assay: as above
HLA-A*02:03 = assay: as above
HLA-A*02:06 = assay: as above
HLA-A*68:02 = assay: as above
HLA-B*18:01 = assay: IEDB peptide-MHC binding, purified MHC/direct/fluorescence; filed as Kd, often an IC50 or EC50 that approximates it; ≥ and ≤ were set here for values at or beyond the usual limits of such assays
HLA-B*40:01 = assay: as above
HLA-B*44:02 = assay: as above
HLA-A*03:01 = assay: IEDB peptide-MHC binding, purified MHC/competitive/radioactivity; filed as Kd, often an IC50 or EC50 that approximates it; ≥ and ≤ were set here for values at or beyond the usual limits of such assays; details: source organism: Vaccinia virus Copenhagen
HLA-A*11:01 = assay: as above; details: source organism: Vaccinia virus Copenhagen
HLA-A*31:01 = assay: as above; details: source organism: Vaccinia virus Copenhagen
HLA-A*33:01 = assay: as above; details: source organism: Vaccinia virus Copenhagen
HLA-A*68:01 = assay: as above; details: source organism: Vaccinia virus Copenhagen
[1] = source organism: Vaccinia virus WR
[2] = source organism: Mammarenavirus lassaense
[3] = source organism: Human alphaherpesvirus 2
[4] = source organism: Trypanosoma cruzi
[5] = source organism: Lymphocytic choriomeningitis virus (strain Armstrong)
[6] = source organism: SARS coronavirus Tor2
[7] = source organism: Influenza A virus (A/duck/Guangxi/1586/2004(H5N1))
[8] = source organism: Mammarenavirus juninense
[9] = source organism: Orthohantavirus dobravaense
[10] = source organism: Vaccinia virus Copenhagen
[11] = source organism: Triticum aestivum
[12] = source organism: Orthohantavirus andesense

Sequence: APKQVAGTGV
Kd (HLA-B*07:02; [1]): 10.9 nM
Kd (HLA-B*35:01; [1]): ≥ 69900 nM
Kd (HLA-B*51:01; [1]): ≥ 61000 nM
Kd (HLA-B*53:01; [1]): ≥ 69900 nM
Kd (HLA-B*54:01; [1]): 266 nM

Sequence: CPQKKKSQA
Kd (HLA-B*07:02; [1]): 105 nM
Kd (HLA-B*35:01; [1]): ≥ 77400 nM
Kd (HLA-B*51:01; [1]): ≥ 77500 nM
Kd (HLA-B*53:01; [1]): ≥ 78200 nM
Kd (HLA-B*54:01; [1]): 66.7 nM

Sequence: CPFLFLTVL
Kd (HLA-B*07:02; [2]): 99.5 nM
Kd (HLA-B*35:01; [2]): 41.2 nM
Kd (HLA-B*51:01; [2]): 746 nM
Kd (HLA-B*53:01; [2]): 216 nM
Kd (HLA-B*54:01; [2]): 160 nM

Sequence: IPEISSNDNA
Kd (HLA-B*07:02; [1]): ≥ 69600 nM
Kd (HLA-B*35:01; [1]): ≥ 69900 nM
Kd (HLA-B*51:01; [1]): ≥ 69600 nM
Kd (HLA-B*53:01; [1]): 2390 nM
Kd (HLA-B*54:01; [1]): 4540 nM

Sequence: APAWSRRTL
Kd (HLA-B*07:02; [3]): 0.19 nM
Kd (HLA-B*35:01; [3]): 3240 nM
Kd (HLA-B*51:01; [3]): ≥ 59500 nM
Kd (HLA-B*53:01; [3]): 3550 nM
Kd (HLA-B*54:01; [3]): 5560 nM

Sequence: GITRPTTVV
Kd (HLA-A*02:01; [4]): ≥ 50700 nM
Kd (HLA-A*02:02; [4]): 14000 nM
Kd (HLA-A*02:03; [4]): 795 nM
Kd (HLA-A*02:06; [4]): 6130 nM
Kd (HLA-A*68:02; [4]): 3150 nM

Sequence: VENSPRASL
Kd (HLA-B*18:01; [2]): 552 nM
Kd (HLA-B*40:01; [2]): 114 nM

Sequence: MPSLTMACM
Kd (HLA-B*07:02; [5]): 112 nM
Kd (HLA-B*35:01; [5]): 5.44 nM
Kd (HLA-B*51:01; [5]): 881 nM
Kd (HLA-B*53:01; [5]): 2160 nM
Kd (HLA-B*54:01; [5]): 1290 nM

Sequence: FPQVGGLTSI
Kd (HLA-B*07:02; [6]): 162 nM
Kd (HLA-B*35:01; [6]): 609 nM
Kd (HLA-B*51:01; [6]): 76.8 nM
Kd (HLA-B*53:01; [6]): 24 nM
Kd (HLA-B*54:01; [6]): 25.7 nM

Sequence: EPSGNNYHI
Kd (HLA-B*07:02; [1]): 1420 nM
Kd (HLA-B*35:01; [1]): ≥ 44300 nM
Kd (HLA-B*51:01; [1]): 692 nM
Kd (HLA-B*53:01; [1]): 20.3 nM
Kd (HLA-B*54:01; [1]): 1580 nM

Sequence: REILTKTTV
Kd (HLA-B*18:01; [7]): 358 nM
Kd (HLA-B*40:01; [7]): 4.9 nM
Kd (HLA-B*44:02; [7]): ≥ 47800 nM

Sequence: TPENFSSLI
Kd (HLA-B*07:02; [8]): 8260 nM
Kd (HLA-B*35:01; [8]): ≥ 38700 nM
Kd (HLA-B*51:01; [8]): 1960 nM
Kd (HLA-B*53:01; [8]): 1320 nM
Kd (HLA-B*54:01; [8]): ≥ 78100 nM

Sequence: DPPIPYSRV
Kd (HLA-B*07:02; [1]): ≥ 77500 nM
Kd (HLA-B*35:01; [1]): ≥ 53400 nM
Kd (HLA-B*51:01; [1]): 31 nM
Kd (HLA-B*53:01; [1]): ≥ 31500 nM
Kd (HLA-B*54:01; [1]): 320 nM

Sequence: SEVTTCFFL
Kd (HLA-B*18:01; [9]): 48.5 nM
Kd (HLA-B*40:01; [9]): 12.7 nM

Sequence: LILSCIFAFI
Kd (HLA-A*02:02; [10]): 5.22 nM
Kd (HLA-A*02:03; [10]): 19.9 nM
Kd (HLA-A*02:06; [10]): 42.5 nM
Kd (HLA-A*03:01): 947 nM
Kd (HLA-A*11:01): 5710 nM
Kd (HLA-A*31:01): 254 nM
Kd (HLA-A*33:01): 1860 nM
Kd (HLA-A*68:01): 658 nM
Kd (HLA-A*68:02; [10]): 17.5 nM
Kd (HLA-B*07:02; [10]): ≥ 69600 nM
Kd (HLA-B*35:01; [10]): ≥ 36600 nM
Kd (HLA-B*51:01; [10]): 17200 nM
Kd (HLA-B*53:01; [10]): 1840 nM
Kd (HLA-B*54:01; [10]): 1520 nM

Kd (HLA-B*07:02; [11]): 9630 nM
Kd (HLA-B*35:01; [11]): ≥ 40700 nM
Kd (HLA-B*51:01; [11]): 353 nM
Kd (HLA-B*53:01; [11]): ≥ 63700 nM
Kd (HLA-B*54:01; [11]): ≥ 63700 nM
Sequence: QPQLPYPQPQL

Sequence: YEGDLRVTF
Kd (HLA-B*18:01; [12]): ≤ 1 nM
Kd (HLA-B*40:01; [12]): 8.3 nM
Kd (HLA-B*44:02; [12]): 4300 nM

Sequence: VPWSKILAY
Kd (HLA-B*07:02; [6]): 447 nM
Kd (HLA-B*35:01; [6]): 8.22 nM
Kd (HLA-B*51:01; [6]): 90.5 nM
Kd (HLA-B*53:01; [6]): 7.08 nM
Kd (HLA-B*54:01; [6]): 536 nM

Kd (HLA-A*02:01; [11]): 972 nM
Kd (HLA-A*02:02; [11]): 770 nM
Kd (HLA-A*02:03; [11]): 254 nM
Kd (HLA-A*02:06; [11]): 132 nM
Kd (HLA-A*68:02; [11]): 5790 nM
Sequence: SQCQAIHNV

Sequence: LPNVQFVDI
Kd (HLA-B*07:02; [1]): 2710 nM
Kd (HLA-B*35:01; [1]): 234 nM
Kd (HLA-B*51:01; [1]): 32.2 nM
Kd (HLA-B*53:01; [1]): 65.2 nM
Kd (HLA-B*54:01; [1]): 16.8 nM

Sequence: MPKDGLKVL
Kd (HLA-B*07:02; [2]): 802 nM
Kd (HLA-B*35:01; [2]): 421 nM
Kd (HLA-B*51:01; [2]): 6530 nM
Kd (HLA-B*53:01; [2]): 2320 nM
Kd (HLA-B*54:01; [2]): 96.5 nM

Sequence: DPLVIPFSF
Kd (HLA-B*18:01; source organism: Salmonella enterica subsp. enterica serovar Paratyphi A str. ATCC 9150): 3130 nM
